From patent US20160039947A1 (Eli Lilly, published 2016)
Residue numbers refer to the chain shown, from its start.

B1: MAControl λκ (anti-cMET/anti-Axl IgG BsAb without Fab redesigns) (bispecific antibody)
heavy 1: EVQLVESGGGLVQPGGSLRLSCAASGYTFTSYWLHWVRQAPGKGLEWVGMIDPSNSDTRFNPNFKDRFTISADTSKNTAYLQMNSLRAEDTAVYYCATYRSYVTPLDYWGQGTLVTVSSASTKGPSVFPLAPSSKSTSGGTAALGCLVKDYFPEPVTVSWNSGALTSGVHTFPAVLQSSGLYSLSSVVTVPSSSLGTQTYICNVNHKPSNTKVDKKVEPKSCDKTHTCPPCPAPELLGGPSVFLFPPKPKDTLMISRTPEVTCVVVDVSHEDPEVKFNWYVDGVEVHNAKTKPREEQYQSTYRVVSVLTVLHQDWLNGKEYKCKVSNKALPAPIEKTISKAKGQPREPQVYTLPPSRDELTKNQVSLTCLVKGFYPSDIAVEWESNGQPENNYDTTPPVLDSDGSFFLYSDLTVDKSRWQQGNVFSCSVMHEALHNHYTQKSLSLSPG
light 1: DIQMTQSPSSLSASVGDRVTITCKSSQSLLYTSSQKNYLAWYQQKPGKAPKLLIYWASTRESGVPSRFSGSGSGTDFTLTISSLQPEDFATYYCQQYYAYPWTFGQGTKVEIKGQPKAAPSVTLFPPSSEELQANKATLVCLISDFYPGAVTVAWKADSSPVKAGVETTTPSKQSNNKYAASSYLSLTPEQWKSHRSYSCQVTHEGSTVEKTVAPTEC
heavy 2: EVQLVESGGGLVQPGGSLRLSCAASGFSLSGSWIHWVRQAPGKGLEWVGWINPYRGYAYYADSVKGRFTISADTSKNTAYLQMNSLRAEDTAVYYCAREYSGWGGSSVGYAMDYWGQGTLVTVSSASTKGPSVFPLAPSSKSTSGGTAALGCLVKDYFPEPVTVSWNSGALTSGVHTFPAVLQSSGLYSLSSVVTVPSSSLGTQTYICNVNHKPSNTKVDKKVEPKSCDKTHTCPPCPAPELLGGPSVFLFPPKPKDTLMISRTPEVTCVVVDVSHEDPEVKFNWYVDGVEVHNAKTKPREEQYQSTYRVVSVLTVLHQDWLNGKEYKCKVSNKALPAPIEKTISKAKGQPREPQVYTLPPSRKELTKNQVSLTCLVKGFYPSDIAVEWESNGQPENNYKTTPPVLKSDGSFFLYSKLTVDKSRWQQGNVFSCSVMHEALHNHYTQKSLSLSPG
light 2: DIQMTQSPSSLSASVGDRVTITCRASQDVSTAVAWYQQKPGKAPKLLIYSASFLYSGVPSRFSGSGSGTDFTLTISSLQPEDFATYYCQQSYTTPPTFGQGTKVEIKRTVAAPSVFIFPPSDEQLKSGTASVVCLLNNFYPREAKVQWKVDNALQSGNSQESVTEQDSKDSTYSLSSTLTLSKADYEKHKVYACEVTHQGLSSPVTKSFNRGEC
B2: MADesign κλ (anti-cMET/anti-Axl IgG BsAb with Fab redesigns) (bispecific antibody)
heavy 1: B1 heavy 1 with Q39K, N63E, H170A, F172G
light 1: RIQMTQSPSSLSASVGDRVTITCKSSQSLLYTSSQKNYLAWYQDKPGKAPKLLIYWASTRESGVPSRFSGSGSGTDFTLTISSLQPEDFATYYCQQYYAYPWTFGQGTKVEIKRTVAAPSVFIFPPSDEQLKSGTASVVCYLNNFYPREAKVQWKVDNALQSGNSQESVTEQDSKDSTYSLWSTLTLSKADYEKHKVYACEVTHQGLSSPVTKSFNRGEC
heavy 2: B1 heavy 2 with Q39Y
light 2: DIQMTQSPSSLSASVGDRVTITCRASQDVSTAVAWYQRKPGKAPKLLIYSASFLYSGVPSRFSGSGSGTDFTLTISSLQPEDFATYYCQQSYTTPPTFGQGTKVEIKGQPKAAPSVTLFPPSSEELQANKATLVCLISDFYPGAVTVAWKADSSPVKAGVETTTPSKQSNNKYAASSYLSLTPEQWKSHRSYSCQVTHEGSTVEKTVAPTEC
notes: also called MA Designs
B3: MADesign λκ (anti-cMET/anti-Axl IgG BsAb with Fab redesigns) (bispecific antibody)
heavy 1: B1 heavy 1 with Q39K, N63E, H170A, F172G
light 1: B1 light 1 with D1R, Q44D, L142Y, S182W
heavy 2: B1 heavy 2 with Q39Y
light 2: B1 light 2 with Q38R
notes: also called MA Designs
B4: MAControl λλ (anti-cMET/anti-Axl IgG BsAb without Fab redesigns) (bispecific antibody)
heavy 1: B1 heavy 1
light 1: B1 light 1
heavy 2: B1 heavy 2
light 2: B2 light 2 with R38Q
B5: MADesign λλ (anti-cMET/anti-Axl IgG BsAb with Fab redesigns) (bispecific antibody)
heavy 1: B1 heavy 1 with Q39K, N63E, H170A, F172G
light 1: B1 light 1 with D1R, Q44D, L142Y, S182W
heavy 2: B1 heavy 2 with Q39Y
light 2: B2 light 2
notes: also called MA Designs
B6: HEControl λλ (anti-HER-2/anti-EGFR IgG BsAb without Fab redesigns) (bispecific antibody)
heavy 1: EVQLVESGGGLVQPGGSLRLSCAASGFTFTDYTMDWVRQAPGKGLEWVADVNPNSGGSIYNQRFKGRFTLSVDRSKNTLYLQMNSLRAEDTAVYYCARNLGPSFYFDYWGQGTLVTVSSASTKGPSVFPLAPSSKSTSGGTAALGCLVKDYFPEPVTVSWNSGALTSGVHTFPAVLQSSGLYSLSSVVTVPSSSLGTQTYICNVNHKPSNTKVDKKVEPKSCDKTHTCPPCPAPELLGGPSVFLFPPKPKDTLMISRTPEVTCVVVDVSHEDPEVKFNWYVDGVEVHNAKTKPREEQYQSTYRVVSVLTVLHQDWLNGKEYKCKVSNKALPAPIEKTISKAKGQPREPQVYTLPPSRDELTKNQVSLTCLVKGFYPSDIAVEWESNGQPENNYDTTPPVLDSDGSFFLYSDLTVDKSRWQQGNVFSCSVMHEALHNHYTQKSLSLSPG
light 1: DIQMTQSPSSLSASVGDRVTITCKASQDVSIGVAWYQQKPGKAPKLLIYSASYRYTGVPSRFSGSGSGTDFTLTISSLQPEDFATYYCQQYYIYPYTFGQGTKVEIKGQPKAAPSVTLFPPSSEELQANKATLVCLISDFYPGAVTVAWKADSSPVKAGVETTTPSKQSNNKYAASSYLSLTPEQWKSHRSYSCQVTHEGSTVEKTVAPTEC
heavy 2: QVQLVQSGAEVKKPGASVKVSCKASGYTFTSHWMHWVRQAPGQGLEWIGEFNPSNGRTNYNEKFKSKATMTVDTSTNTAYMELSSLRSEDTAVYYCASRDYDYDGRYFDYWGQGTLVTVSSASTKGPSVFPLAPSSKSTSGGTAALGCLVKDYFPEPVTVSWNSGALTSGVHTFPAVLQSSGLYSLSSVVTVPSSSLGTQTYICNVNHKPSNTKVDKKVEPKSCDKTHTCPPCPAPELLGGPSVFLFPPKPKDTLMISRTPEVTCVVVDVSHEDPEVKFNWYVDGVEVHNAKTKPREEQYQSTYRVVSVLTVLHQDWLNGKEYKCKVSNKALPAPIEKTISKAKGQPREPQVYTLPPSRKELTKNQVSLTCLVKGFYPSDIAVEWESNGQPENNYKTTPPVLKSDGSFFLYSKLTVDKSRWQQGNVFSCSVMHEALHNHYTQKSLSLSPG
light 2: DIQMTQSPSSLSASVGDRVTITCSASSSVTYMYWYQQKPGKAPKLLIYDTSNLASGVPSRFSGSGSGTDYTFTISSLQPEDIATYYCQQWSSHIFTFGQGTKVEIKGQPKAAPSVTLFPPSSEELQANKATLVCLISDFYPGAVTVAWKADSSPVKAGVETTTPSKQSNNKYAASSYLSLTPEQWKSHRSYSCQVTHEGSTVEKTVAPTEC
notes: The preparation held 65% correctly paired heterotetramer by LC/MS
B7: HEControl λκ (anti-HER-2/anti-EGFR IgG BsAb without Fab redesigns) (bispecific antibody)
heavy 1: B6 heavy 1
light 1: B6 light 1
heavy 2: B6 heavy 2
light 2: DIQMTQSPSSLSASVGDRVTITCSASSSVTYMYWYQQKPGKAPKLLIYDTSNLASGVPSRFSGSGSGTDYTFTISSLQPEDIATYYCQQWSSHIFTFGQGTKVEIKRTVAAPSVFIFPPSDEQLKSGTASVVCLLNNFYPREAKVQWKVDNALQSGNSQESVTEQDSKDSTYSLSSTLTLSKADYEKHKVYACEVTHQGLSSPVTKSFNRGEC

Target: T1, hHGFR(cMet)-Fc (human, UniProt P08581 25-932)
T1 construct: Coated in the sandwich ELISA; second injection in SPR; not shown: Fc part of the bought fusion protein
Assay: sandwich ELISA: hHGFR(cMet)-Fc coated, BsAb, hAxl-Fc-biotin detection
Protocol: (§1) Two sandwich ELISAs are developed, one for detecting anti-HER-2/anti-EGFR BsAb activity and one for detecting anti-cMET/anti-Axl BsAb activity. For both ELISAs, clear 96-well round bottom high binding Immulon microtiter plates (Greiner bio-one, cat#650061) are coated overnight at 2-8° C. with 50 μL/well 1 μg/mL hHER-2-Fc or 1 μg/mL hHGFR(cMet)-Fc (both from R&D systems) in a 50 mM Na₂CO₃ pH 8 buffer. The plates are washed 4 times with PB ST and blocked with 100 μL/well casein buffer (Pierce) for 1 hr at 37° C. The plates are then washed 4 times with PBST and the parental IgG controls or BsAb IgG test articles are added at 50 μL/well and 5 μg/mL and serially diluted 1:3 down the plate. The test articles are incubated on the plate for 1 hr at 37° C. The plates are then washed 4 times with PBST and 50 μL/well 0.2 μg/mL hEGFR-Fc-biotin or hAxl-Fc-biotin (both from R&D systems) is added for 1 hr at 37° C. The plates are then washed 4 times with PBST followed by the addition of a 50 μL/well streptavidin-HRP (Jackson Labs) diluted 1:2000 in PBST. The streptavidin-HRP is incubated in each well for 1 hr at 37° C. The plates are then washed 4 times with PBST and 100 μL/well 1-component TMB substrate is added (KPL laboratories). After approximately 10 minutes, […] 1% H₃PO₄ (in H₂O) is added to each plate to quench the reaction. Absorbance (450 nm) of every well in the plates is read using a SpectraMax UV plate reader (Molecular Devices). Biotin-labeling of the hEGFR-Fc and hAxl-Fc proteins is performed using EZ-Link Sulfo-NHS-LC-Biotin (Thermo Scientific) according to the manufacturer's protocol.

T1 sequence (P08581 25-932): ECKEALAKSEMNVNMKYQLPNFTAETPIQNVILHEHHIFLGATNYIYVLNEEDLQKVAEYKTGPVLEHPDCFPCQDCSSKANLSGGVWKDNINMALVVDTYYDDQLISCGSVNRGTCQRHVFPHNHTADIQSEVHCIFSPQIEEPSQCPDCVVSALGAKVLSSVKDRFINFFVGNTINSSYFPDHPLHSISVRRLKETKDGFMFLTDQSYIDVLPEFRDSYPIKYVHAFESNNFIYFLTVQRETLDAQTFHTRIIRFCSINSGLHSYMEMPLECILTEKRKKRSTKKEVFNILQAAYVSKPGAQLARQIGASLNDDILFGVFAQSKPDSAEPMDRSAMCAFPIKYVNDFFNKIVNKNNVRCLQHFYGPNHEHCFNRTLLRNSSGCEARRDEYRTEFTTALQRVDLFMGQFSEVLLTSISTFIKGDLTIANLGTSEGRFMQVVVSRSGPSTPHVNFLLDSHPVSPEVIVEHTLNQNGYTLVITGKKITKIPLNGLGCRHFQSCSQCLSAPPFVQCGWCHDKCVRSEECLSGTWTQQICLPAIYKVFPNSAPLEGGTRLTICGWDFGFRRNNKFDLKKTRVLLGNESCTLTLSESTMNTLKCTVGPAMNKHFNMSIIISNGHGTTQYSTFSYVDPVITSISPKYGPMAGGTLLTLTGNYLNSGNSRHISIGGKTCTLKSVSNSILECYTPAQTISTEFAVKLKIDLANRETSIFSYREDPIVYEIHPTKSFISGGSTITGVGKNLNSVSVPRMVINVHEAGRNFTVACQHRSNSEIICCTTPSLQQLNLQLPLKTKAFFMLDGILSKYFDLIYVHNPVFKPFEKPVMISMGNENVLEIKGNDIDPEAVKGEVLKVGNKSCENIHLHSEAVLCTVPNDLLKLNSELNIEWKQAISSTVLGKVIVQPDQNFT

Row | binding result | Binder
1 | binds | B1
2 | binds | B2
3 | binds | B3
4 | binds | B4
5 | binds | B5

Target: T2, hEGFR-Fc (human, UniProt P00533 25-645)
T2 construct: Biotin-labelled (EZ-Link Sulfo-NHS-LC-Biotin) as detection reagent in the ELISA; unlabelled second injection in SPR; also called hEGFR-Fc-biotin; not shown: Fc part of the bought fusion protein
Assay: sandwich ELISA: hHER-2-Fc coated, BsAb, hEGFR-Fc-biotin detection
Protocol: as §1

Row | binding result | Binder
6 | binds | B6
7 | binds | B7
